Experimental data as given in US5773694.

Tests used:
[1] = target: Ace-AMP1 (Allium cepa - Antimicrobial Protein 1), mature protein purified from Allium cepa seeds (Allium cepa)
[2] = target: reduced and S-carboxyamidomethylated Ace-AMP1 (Allium cepa)

Relative antifungal activity (% of control activity) after protease digestion (% of control activity) [1]	Substance	also measured
80	Chymotrypsin (enzyme)	–
–	endoproteinase Arg-C (sequencing grade, Boehringer) (enzyme)	peptides separated by RP-HPLC after digestion (separable peptides) [2]: > 10
–	endoproteinase Asp-N (sequencing grade, Boehringer) (enzyme)	protein fragments separated by RP-HPLC after digestion (protein fragments) [2]: 3
5	Pronase E (enzyme)	–
60	Proteinase K (enzyme)	–
90	Trypsin (enzyme)	–
